Key:
[1] = tested on: AncSZ; assay: phosphorylation enrichment, bacterial display (enrichment ratio); higher = better substrate or ligand; peptides without Tyr show the background
[2] = molecular target: EPHB1 (UniProt P54762); assay: as above
[3] = molecular target: EPHB2 (UniProt P29323); assay: as above
[4] = molecular target: FGFR1 (UniProt P11362); assay: as above
[5] = molecular target: FGFR3 (UniProt P22607); assay: as above
[6] = tested on: Fer (mouse); assay: as above
[7] = molecular target: Fes (UniProt P07332); assay: as above
[8] = molecular target: Fyn (UniProt P06241); assay: as above
[9] = molecular target: Hck (UniProt P08631); assay: as above
[10] = molecular target: Jak2 (UniProt O60674); assay: as above
[11] = molecular target: MERTK (UniProt Q12866); assay: as above
[12] = tested on: c-Abl (mouse); assay: as above
[13] = tested on: c-Src; assay: as above
[14] = molecular target: Grb2 SH2 (UniProt P62993); assay: SH2 binding enrichment of the phosphorylated peptide, bacterial display (enrichment ratio); higher = better substrate or ligand; peptides without Tyr show the background
[15] = molecular target: SHP2-C SH2; assay: as above
[16] = molecular target: c-Src SH2; assay: as above
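Throughout, for SH2 binding enrichment of the phosphorylated peptide, bacterial display: peptide library displayed on the E. coli surface as eCPX fusions, selected cells deep-sequenced, score is each peptide's frequency after selection divided by its frequency in the input.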
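Throughout, for phosphorylation enrichment, bacterial display: 11-residue human phosphosite peptides and single-mutation variants displayed on the E. coli surface, counted by deep sequencing, each peptide's frequency after selection divided by its frequency in the unselected input library; frequency after pTyr selection over input frequency; kinase dosed for 20-30% of maximal phosphorylation in three min.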

Sequence of EPHB1 (P54762 whole entry, looked up): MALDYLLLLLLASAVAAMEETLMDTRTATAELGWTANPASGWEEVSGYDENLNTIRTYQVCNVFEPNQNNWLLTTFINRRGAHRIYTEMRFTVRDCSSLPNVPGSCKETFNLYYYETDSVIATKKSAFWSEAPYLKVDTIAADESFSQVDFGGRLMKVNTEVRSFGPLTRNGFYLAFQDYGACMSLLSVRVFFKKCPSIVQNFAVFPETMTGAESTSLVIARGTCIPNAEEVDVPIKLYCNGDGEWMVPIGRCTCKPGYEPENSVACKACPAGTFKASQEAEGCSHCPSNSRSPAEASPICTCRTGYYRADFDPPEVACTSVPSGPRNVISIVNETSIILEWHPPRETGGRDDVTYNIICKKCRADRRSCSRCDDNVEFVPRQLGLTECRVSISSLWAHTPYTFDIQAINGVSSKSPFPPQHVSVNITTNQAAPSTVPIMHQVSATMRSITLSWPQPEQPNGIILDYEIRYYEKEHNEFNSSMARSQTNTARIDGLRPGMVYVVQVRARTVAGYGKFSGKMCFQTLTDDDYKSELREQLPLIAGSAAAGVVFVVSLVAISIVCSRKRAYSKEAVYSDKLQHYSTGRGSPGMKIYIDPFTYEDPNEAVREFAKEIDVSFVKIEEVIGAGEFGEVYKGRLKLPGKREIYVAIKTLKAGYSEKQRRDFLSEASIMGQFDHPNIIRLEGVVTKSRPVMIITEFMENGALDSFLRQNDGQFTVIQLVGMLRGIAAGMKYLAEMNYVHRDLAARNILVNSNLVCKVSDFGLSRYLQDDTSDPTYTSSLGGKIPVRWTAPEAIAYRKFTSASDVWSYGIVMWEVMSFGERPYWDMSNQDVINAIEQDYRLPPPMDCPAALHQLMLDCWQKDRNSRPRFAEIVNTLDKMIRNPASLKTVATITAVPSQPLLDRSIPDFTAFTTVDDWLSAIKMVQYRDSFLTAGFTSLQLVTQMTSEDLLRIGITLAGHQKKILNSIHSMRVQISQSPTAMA
Sequence of Fyn (P06241 whole entry, looked up): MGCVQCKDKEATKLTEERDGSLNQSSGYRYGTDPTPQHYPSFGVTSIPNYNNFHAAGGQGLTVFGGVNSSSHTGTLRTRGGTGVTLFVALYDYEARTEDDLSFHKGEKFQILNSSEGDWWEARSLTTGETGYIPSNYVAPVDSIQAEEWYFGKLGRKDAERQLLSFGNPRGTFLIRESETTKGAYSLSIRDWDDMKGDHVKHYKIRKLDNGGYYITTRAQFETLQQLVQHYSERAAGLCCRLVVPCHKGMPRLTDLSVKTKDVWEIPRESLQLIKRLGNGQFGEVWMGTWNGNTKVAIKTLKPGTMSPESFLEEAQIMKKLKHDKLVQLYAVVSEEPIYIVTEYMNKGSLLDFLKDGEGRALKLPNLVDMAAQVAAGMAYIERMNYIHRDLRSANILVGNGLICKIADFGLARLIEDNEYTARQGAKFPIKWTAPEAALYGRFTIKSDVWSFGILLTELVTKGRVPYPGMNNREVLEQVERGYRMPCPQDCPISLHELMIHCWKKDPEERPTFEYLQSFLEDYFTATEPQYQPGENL
Sequence of Hck (P08631 whole entry, looked up): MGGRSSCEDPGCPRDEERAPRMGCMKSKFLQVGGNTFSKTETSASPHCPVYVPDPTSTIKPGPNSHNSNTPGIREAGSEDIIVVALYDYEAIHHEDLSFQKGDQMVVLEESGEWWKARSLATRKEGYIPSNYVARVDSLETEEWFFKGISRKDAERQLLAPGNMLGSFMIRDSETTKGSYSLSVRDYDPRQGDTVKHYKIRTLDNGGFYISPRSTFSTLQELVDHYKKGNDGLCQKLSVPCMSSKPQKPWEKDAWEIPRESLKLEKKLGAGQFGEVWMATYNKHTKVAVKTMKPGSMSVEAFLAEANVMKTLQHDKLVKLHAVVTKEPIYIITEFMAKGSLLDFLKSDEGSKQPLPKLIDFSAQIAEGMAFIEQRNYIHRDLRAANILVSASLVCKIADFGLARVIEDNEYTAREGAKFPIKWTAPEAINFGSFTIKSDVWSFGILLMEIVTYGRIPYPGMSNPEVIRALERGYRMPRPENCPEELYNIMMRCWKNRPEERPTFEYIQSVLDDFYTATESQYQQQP
Sequence of EPHB2 (P29323 whole entry, looked up): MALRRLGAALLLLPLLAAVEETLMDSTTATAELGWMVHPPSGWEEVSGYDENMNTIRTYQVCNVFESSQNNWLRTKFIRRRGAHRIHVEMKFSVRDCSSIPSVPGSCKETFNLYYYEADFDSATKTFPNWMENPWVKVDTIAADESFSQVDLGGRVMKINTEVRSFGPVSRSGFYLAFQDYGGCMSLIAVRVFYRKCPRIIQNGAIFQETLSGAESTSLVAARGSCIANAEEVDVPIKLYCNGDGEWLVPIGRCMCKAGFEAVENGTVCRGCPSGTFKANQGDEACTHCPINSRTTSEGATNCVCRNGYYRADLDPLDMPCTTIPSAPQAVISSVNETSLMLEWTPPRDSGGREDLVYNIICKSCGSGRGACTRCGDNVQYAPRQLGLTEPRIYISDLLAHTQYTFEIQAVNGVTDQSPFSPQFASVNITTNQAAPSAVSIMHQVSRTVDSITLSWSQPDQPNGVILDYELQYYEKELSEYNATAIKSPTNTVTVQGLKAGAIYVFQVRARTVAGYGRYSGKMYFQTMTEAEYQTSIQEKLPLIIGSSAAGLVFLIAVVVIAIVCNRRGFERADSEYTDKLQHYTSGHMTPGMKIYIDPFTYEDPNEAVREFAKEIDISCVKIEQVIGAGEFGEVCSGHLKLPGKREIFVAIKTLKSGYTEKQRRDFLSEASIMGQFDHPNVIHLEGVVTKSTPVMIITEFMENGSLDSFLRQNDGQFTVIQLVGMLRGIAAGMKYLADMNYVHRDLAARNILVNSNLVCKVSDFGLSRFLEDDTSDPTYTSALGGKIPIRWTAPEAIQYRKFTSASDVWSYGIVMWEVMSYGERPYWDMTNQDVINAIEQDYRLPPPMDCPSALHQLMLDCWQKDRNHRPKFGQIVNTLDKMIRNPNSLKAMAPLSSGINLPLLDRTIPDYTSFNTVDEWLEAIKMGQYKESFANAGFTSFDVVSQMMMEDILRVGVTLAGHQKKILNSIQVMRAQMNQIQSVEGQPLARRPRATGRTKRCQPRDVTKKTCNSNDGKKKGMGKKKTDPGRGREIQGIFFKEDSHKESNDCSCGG
Sequence of Grb2 SH2 (P62993 whole entry, looked up): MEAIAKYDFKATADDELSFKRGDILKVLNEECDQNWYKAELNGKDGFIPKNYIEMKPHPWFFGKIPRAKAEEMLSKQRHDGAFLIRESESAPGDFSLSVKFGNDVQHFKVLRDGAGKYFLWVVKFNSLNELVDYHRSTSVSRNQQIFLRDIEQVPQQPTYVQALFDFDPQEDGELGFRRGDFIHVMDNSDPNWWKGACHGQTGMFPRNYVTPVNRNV
Sequence of Jak2 (O60674 whole entry, looked up): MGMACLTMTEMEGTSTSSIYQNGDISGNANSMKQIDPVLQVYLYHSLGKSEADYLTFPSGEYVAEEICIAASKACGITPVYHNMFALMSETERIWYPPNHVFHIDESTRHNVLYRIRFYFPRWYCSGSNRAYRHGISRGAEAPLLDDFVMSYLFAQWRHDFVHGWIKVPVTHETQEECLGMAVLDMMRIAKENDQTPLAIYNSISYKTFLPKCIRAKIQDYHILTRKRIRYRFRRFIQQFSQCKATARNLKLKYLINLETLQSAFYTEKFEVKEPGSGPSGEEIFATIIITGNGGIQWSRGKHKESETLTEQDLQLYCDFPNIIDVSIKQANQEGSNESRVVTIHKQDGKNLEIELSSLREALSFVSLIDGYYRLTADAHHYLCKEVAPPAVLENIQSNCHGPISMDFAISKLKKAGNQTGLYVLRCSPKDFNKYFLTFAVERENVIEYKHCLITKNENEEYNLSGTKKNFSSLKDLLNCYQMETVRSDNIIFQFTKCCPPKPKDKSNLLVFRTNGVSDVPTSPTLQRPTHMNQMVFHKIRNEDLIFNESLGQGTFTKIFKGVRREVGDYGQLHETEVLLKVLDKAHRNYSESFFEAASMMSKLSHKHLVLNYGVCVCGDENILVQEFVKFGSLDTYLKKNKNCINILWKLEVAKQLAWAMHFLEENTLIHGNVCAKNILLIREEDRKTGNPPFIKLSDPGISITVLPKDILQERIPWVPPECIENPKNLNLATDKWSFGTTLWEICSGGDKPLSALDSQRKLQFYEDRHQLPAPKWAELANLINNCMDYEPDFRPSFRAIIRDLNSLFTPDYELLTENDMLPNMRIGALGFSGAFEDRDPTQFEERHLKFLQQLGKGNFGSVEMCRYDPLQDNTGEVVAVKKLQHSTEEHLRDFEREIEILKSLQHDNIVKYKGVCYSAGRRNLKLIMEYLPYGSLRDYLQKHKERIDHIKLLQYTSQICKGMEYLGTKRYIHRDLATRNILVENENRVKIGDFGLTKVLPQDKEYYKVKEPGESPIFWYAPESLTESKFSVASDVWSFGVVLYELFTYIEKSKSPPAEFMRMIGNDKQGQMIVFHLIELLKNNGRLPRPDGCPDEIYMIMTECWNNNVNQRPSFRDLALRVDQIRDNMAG

Sequence	phosphorylation enrichment [1]	phosphorylation enrichment [2]	phosphorylation enrichment [3]	phosphorylation enrichment [4]	phosphorylation enrichment [5]	phosphorylation enrichment [6]	phosphorylation enrichment [7]	phosphorylation enrichment [8]	phosphorylation enrichment [9]	phosphorylation enrichment [10]	phosphorylation enrichment [11]	phosphorylation enrichment [12]	phosphorylation enrichment [13]	SH2 binding enrichment [14]	SH2 binding enrichment [15]	SH2 binding enrichment [16]
DTNIAYCLHPR [POMT1_Y581_W582C]	0.831	0.549	0.532	0.471	0.691	0.505	1.06	0.541	0.431	0.754	0.695	0.753	0.568	0.712	0.744	0.609
DTYDPYLDVAL [USP36_Y268]	1.55	0.805	0.776	0.742	0.853	0.661	1.32	1.19	0.846	1.1	0.412	0.859	1.43	0.751	0.559	0.509
DVCKNYAKAKD [ALB_Y343_E345K]	0.71	0.469	0.535	0.409	0.498	0.473	0.627	0.428	0.439	0.607	0.51	0.633	0.4	1.03	0.956	0.559
DVFVSYDCGKS [SORL1_Y139_Y141C_YF]	0.969	0.611	0.518	0.485	0.61	0.521	1.04	0.495	0.592	1.05	0.371	0.74	0.449	0.964	0.592	0.528
DVSKEYGHLLP [HRC_Y99]	0.852	0.743	0.608	0.551	0.833	0.656	1.09	0.624	0.801	0.687	0.59	0.747	0.836	0.76	0.581	0.425
DWLRRYLENGK [HLA-A_Y195_E190D]	1.1	0.723	0.946	0.728	0.708	1.02	1.04	0.642	0.705	0.986	0.864	0.584	0.617	0.654	0.366	0.211
DYGSGYPNDPK [RNASEH2A_Y210]	0.86	0.482	0.625	0.548	0.643	0.538	1.01	0.474	0.574	0.93	0.569	0.778	0.575	0.699	0.589	0.319
DYSLKYATDIP [APC_Y1183]	1.35	0.78	0.565	0.6	0.913	0.573	1.29	0.582	0.6	1.25	0.5	0.736	0.571	0.704	0.536	0.443
EADRKYEEVAC [TPM3_Y163_R168C]	1.17	0.622	0.609	0.598	0.777	0.61	1.41	0.574	0.681	1.04	0.545	0.862	0.53	1.12	0.925	21.8
EADRKYEEVAR [TPM3_Y163]	1.29	0.764	0.742	0.637	0.895	0.712	1.46	0.58	0.663	1.19	0.598	1.08	0.625	1.08	0.794	18
EAEPYYRSLRD [NPHS1_Y1139]	0.929	0.487	0.594	0.505	0.585	0.428	0.911	0.479	0.521	0.785	0.467	0.709	0.601	0.765	0.791	0.775
ECKASCPGKIT [PRSS3_Y232_Y232C]	0.461	0.336	0.335	0.404	0.44	0.453	0.536	0.401	0.351	0.402	0.468	0.577	0.359	0.791	0.556	0.442
ECKLRYSRKEG [PTPN11_Y263_L262R]	0.527	0.457	0.533	0.484	0.53	0.376	0.606	0.52	0.503	0.378	0.523	0.452	0.423	0.746	0.679	0.453
EDKFMYFEFPQ [PTEN_Y240]	1.7	0.826	0.67	9.1	7.33	0.421	1.27	1.32	1.11	2.05	1.68	0.952	2.53	0.745	0.681	0.543
EEEPVYEAEPE [HCLS1_Y360]	1.49	0.664	0.712	0.646	0.84	0.655	1.42	0.765	0.73	1.38	0.72	1.14	0.851	0.831	0.716	0.542
EEKKKYYDTKI [CASP5_Y103]	0.818	0.442	0.421	0.468	0.515	0.465	0.853	0.479	0.4	0.875	0.366	0.618	0.34	0.698	0.669	0.432
EEQKKYFNAVK [SCN5A_Y1494_M1498V_YF]	0.832	0.482	0.566	0.358	0.567	0.414	1.05	0.506	0.483	0.727	0.482	0.742	0.383	0.868	0.604	0.574
EFDRLYEEFTR [PIK3R1_Y467_YF]	1.59	3.46	2.77	0.65	0.807	6.18	1.15	7.47	6.11	1.01	3.04	0.841	5.36	0.92	1.05	0.516
EFENSCIFDIN [GAB1_Y83_Y83C]	0.958	0.403	0.431	0.45	0.632	0.42	0.963	0.483	0.406	0.824	0.895	0.673	0.397	1.18	0.732	0.786
EFGRRYGFSCQ [CCDC93_Y209_R213C_YF]	0.914	0.539	0.504	0.629	0.62	0.534	0.989	0.547	0.418	0.911	0.491	0.733	0.468	0.856	0.635	0.495
EFISEHCGEII [EZH2_Y641_Y641H]	1.35	0.733	0.644	0.544	0.722	0.652	1.31	0.639	0.602	1.17	0.658	0.806	0.56	0.831	0.784	0.633
EGDGVYTLNDE [HP_Y125_N129D]	1.18	0.643	0.727	0.453	0.838	0.555	1.23	4.51	1.81	1.21	0.482	0.8	3.79	0.872	0.445	0.532
EGLKVYINGTL [ADGRD1_Y183_V184I]	1.18	0.663	0.614	0.554	0.853	0.555	1.49	0.401	0.541	1.38	0.337	0.8	0.4	1.32	0.659	0.381
EGNERYEGYCV [GRIA3_Y451]	0.982	0.542	0.562	0.575	0.742	0.579	1.14	0.544	0.574	0.944	0.418	0.761	0.579	0.881	0.693	2.3
EIKLAYRRRPP [GRIN2B_Y1109_E1106K]	0.735	0.568	0.617	0.537	0.584	0.98	0.532	0.526	0.789	0.861	0.652	0.756	0.885	0.708	0.525	0.362
EILLSDLRTGY [TGM1_Y365_Y365D]	0.673	0.367	0.455	0.511	0.616	0.362	0.845	0.416	0.553	0.744	0.422	0.421	0.401	0.74	0.629	0.447
EILTQYEAMAS [GFAP_Y242_R239L]	1.02	0.547	0.452	0.485	0.608	0.514	0.976	0.529	0.526	0.846	0.471	0.713	0.503	0.853	0.638	2.84
EIPTQYEAMAS [GFAP_Y242_R239P]	0.982	0.853	0.577	0.536	0.694	0.662	1.04	0.487	0.596	0.802	0.445	0.615	0.405	0.674	0.629	2.5
EIRTQYEVMAS [GFAP_Y242_A244V]	0.74	0.445	0.476	0.493	0.635	0.49	0.839	0.484	0.49	1.07	0.378	0.615	0.437	0.767	0.89	6.97
